Paper PMC7243947, “AcDCXR Is a Cowpea Aphid Effector With Putative Roles in Altering Host Immunity and Physiology” (Frontiers in Plant Science, 2020)

Assays:
[1] = substrate: NC(=O)c1ccc[n+]([C@@H]2O[C@H](COP(=O)(O)OP(=O)(O)OC[C@H]3O[C@@H](n4cnc5c(N)ncnc54)[C@H](OP(=O)(O)O)[C@@H]3O)[C@@H](O)[C@H]2O)c1; experiment: purified protein; assay type: biochemical, Aphis craccivora; conditions: 200 mM xylitol fixed, NADP+ varied, 100 mM glycine pH 9.5, 3 mM MgCl2, paper speaks of it as constant of xylitol oxidation, varied: cofactor
[2] = substrate: CC(=O)C=O; experiment: purified protein; assay type: biochemical, Aphis craccivora; conditions: 200 μM NADPH (methods; figure legend prints 200 mM), sodium phosphate pH 6.5, methylglyoxal varied

B1: AcDCXR (Aphis craccivora) (protein)
chain: MEEFFVGKKFIVTGANAGIGETITKRLVQLGAHVFAVGRDPKKLPPAGPNLTPVCADVGDWDSYDIIKKLGPVHGLVNNAGVAFIESFFDMTQEGWDKTLNINARGIVRISQAVAQNMKDAGIKGSIVNVSSTISERAIPDHTSYCASKGAVNQVTRVMSIELGKLGIRTNNVNPTVVMTKMGAKAWSDPEKSNPILSRIPLGRFAECDDVANVTLFLLSDYSTYVNGVSIPVDGGFLAS
notes: coding region without predicted signal peptide (first 23 of at least 263 residues); pDEST17 N-terminal 6xHis tag, no cleavage told; E. coli ArcticExpress
- Km [1]: 560 µM
- kcat [1]: 1.85 s⁻¹
- Km [2]: 1300 µM
- kcat [2]: 0.23 s⁻¹
